In US20080146500A1, “Selective Vpac2 Receptor Peptide Agonists” (priority 2004, published 2008):
Like-named read-outs stand apart in the source and are kept apart here. Ends that are not written are not given here.

Experiments:
human VPAC2 [1] = biological target: T1, human VPAC2 (Homo sapiens, UniProt P41587); assay: Filter binding assay, membranes from stable VPAC2 cell line, 125I-labeled VIP tracer; conditions: read-out: Human receptor binding (IC50; nM) VPAC2
T1 construct: expressed in transfected cells
T1 sequence (P41587 24-438): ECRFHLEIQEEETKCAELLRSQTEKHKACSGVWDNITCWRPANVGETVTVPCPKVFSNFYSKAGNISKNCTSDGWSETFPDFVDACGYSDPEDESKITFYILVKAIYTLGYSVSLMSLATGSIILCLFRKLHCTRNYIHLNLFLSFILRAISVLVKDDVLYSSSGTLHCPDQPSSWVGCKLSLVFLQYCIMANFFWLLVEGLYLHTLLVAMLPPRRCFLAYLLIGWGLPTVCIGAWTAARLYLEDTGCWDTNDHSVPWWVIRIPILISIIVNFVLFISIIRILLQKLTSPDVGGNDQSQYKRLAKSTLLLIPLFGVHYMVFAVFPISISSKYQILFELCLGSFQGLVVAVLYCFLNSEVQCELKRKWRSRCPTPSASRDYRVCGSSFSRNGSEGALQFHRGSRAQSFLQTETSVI
Method: (§1) For this assay, the solutions and equipment include:
(§2) Presoak solution: 0.5% Polyethyleneamine in Aqua dest.
(§3) Buffer for flushing filter plates: 25 mM HEPES pH 7.4
(§4) Blocking buffer: 25 mM HEPES pH 7.4; 0.2% protease free BSA
(§5) Assay buffer: 25 mM HEPES pH 7.4; 0.5% protease free BSA
(§6) Dilution and assay plate: PS-Microplate, U form
(§7) Filtration Plate Multiscreen FB Opaque Plate; […] Type B Glasfiber filter
(§8) In order to prepare the filter plates, the presoak solution is aspirated by vacuum filtration. The plates are flushed twice with 200 μL flush buffer. 200 μL blocking buffer is added to the filter plate. The filter plate is then incubated with 200 μL presoak solution for 1 hour at room temperature.
(§9) The assay plate is filled with […] (2.5 μg) suspended in assay buffer, 25 μL compound (agonist) in assay buffer, and 25 μL tracer (about 40000 cpm) in assay buffer. The filled plate is incubated for 1 hour with shaking.
(§10) The transfer from assay plate to filter plate is conducted. The blocking buffer is aspirated by vacuum filtration and washed two times with flush buffer. 90 μL is transferred from the assay plate to the filter plate. The 90 μL transferred from assay plate is aspirated and washed three times with 200 μL flush buffer. The plastic support is removed. It is dried for 1 hour at 60° C. 30 μL Microscint is added. The count is performed.
(§11) Values reported are single results or the mean of two or more independent runs.

[2] = Pharmacokinetic profiles of PEGylated peptides, plasma peptide by RIA; format: in vivo, Fisher 344 rats; conditions: Fisher 344 rats, 100 μg compound/kg, plasma RIA, mean N = 3
Method: Pharmacokinetic profiles of PEGylated peptides. Healthy Fisher 344 rats (3 animals per group) are injected with 100 μg compound/kg (compound amount based on peptide content and dissolved in PBS buffer). […] PK parameters are then calculated using a model-independent method (WinNonlin Pro, Pharsight Corp., Mountain View, Calif., USA).

[3] = Rat serum stability at 37 C, remaining active peptide estimated by EC50,4C/EC50,37C in CHO-VPAC2 cAMP assay; conditions: for Estimated serum stability (%): after 24 h in rat serum at 37 C
Method: The rat serum is stored at 4° C. until use and is used within two weeks.
On Day 0, two 100 μL aliquots of 10 μM peptide in rat serum are prepared by adding 10 μL peptide stock to 90 μL rat serum for each aliquot. 250 kIU aprotinin/mL is added to one of these aliquots. The aliquot is stored with aprotinin at 4° C. The aliquot is stored without aprotinin at 37° C. The aliquots are incubated for […].
On Day 1, after incubation of the aliquots prepared on day 0 for 24 hours, an incubation buffer containing PBS+1.3 mM CaCl2, 1.2 mM MgCl2, 2 mM glucose, and 0.25 mM IBMX is prepared. A plate with 11 serial 5× dilutions of peptide for the 4° C. and 37° C. aliquot is prepared for each peptide studied. […] The plate(s) are washed with cells twice in incubation buffer. The plates are allowed to hold 50 μL incubation media per well for 15 minutes. 50 μL solution per well is transferred to the cells from the plate prepared with 11 serial 5× dilutions of peptide for the 4° C. and 37° C. aliquot for each peptide studied, using the maximal concentrations that are indicated by the primary screen, in duplicate. This step dilutes the peptide concentration by a factor of two. The cells are incubated at room temperature for 30 minutes. The supernatant is removed. 40 μL/well of the DiscoveRx antibody/extraction buffer is added. The cells are incubated on the shaker (300 rpm) for 1 hour. Normal procedure with the DiscoveRx kit is followed. cAMP standards are included in column 12. EC50 values are determined from the cAMP assay data.

human VPAC2 [4] = biological target: T1, human VPAC2; assay: Alpha screen in vitro potency: human VPAC2-R mediated cAMP generation; format: cell-based; conditions: single results or mean of two or more independent runs
human PAC1 = biological target: T2, human PAC1 (Homo sapiens, UniProt P41586); assay: Filter binding assay, membranes from cells transiently transfected with human PAC1, 125I-labeled PACAP-27 tracer; conditions: read-out: Human receptor binding (IC50; nM) PAC1
T2 construct: expressed in transfected cells
T2 sequence (P41586 21-468): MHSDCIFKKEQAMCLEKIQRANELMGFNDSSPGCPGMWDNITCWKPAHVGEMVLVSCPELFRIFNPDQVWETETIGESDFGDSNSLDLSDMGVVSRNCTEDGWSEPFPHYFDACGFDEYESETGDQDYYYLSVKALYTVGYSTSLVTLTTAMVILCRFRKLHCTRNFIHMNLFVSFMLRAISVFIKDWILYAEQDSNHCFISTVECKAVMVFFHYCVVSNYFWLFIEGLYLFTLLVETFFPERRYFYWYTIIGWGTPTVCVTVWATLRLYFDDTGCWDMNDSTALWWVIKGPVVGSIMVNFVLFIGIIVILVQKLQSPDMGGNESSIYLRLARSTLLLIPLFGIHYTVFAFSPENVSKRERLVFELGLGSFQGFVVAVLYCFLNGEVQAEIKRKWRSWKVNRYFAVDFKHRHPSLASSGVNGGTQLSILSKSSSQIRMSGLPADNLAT
Method: as §1, §2, §3, §4, §5, §6, §7, §8, §9, §10, §11

[5] = values >100% may represent release of intact peptide from the PEG conjugate

| Substance | IC50 (human VPAC2 [1]) | AUC0-last [2] | Cl/F [2] | Cmax [2] | Tmax [2] | T½ [2] | Estimated serum stability (%) [3, 5] | EC50 (human VPAC2 [4]) | IC50 (human PAC1) | Estimated 72 h stability (%) ([3]; after 72 h in rat serum at 37 C, values >100% may represent release of intact peptide from the PEG conjugate) | Estimated 72 h stability (%) [3] |
| --- | --- | --- | --- | --- | --- | --- | --- | --- | --- | --- | --- |
| C6-HDAVFTEQY(OMe)TOrnLRAibQVAAAibOrnYLQSIOrnOrnGGPSSGAPPPC(PEG60K)-NH2 [Agonist P404] | 13.1 nM | 6070 ng·h/mL | 0.283 mL/min/kg | 133 ng/mL | 20 h | 23 h | 320.7% | 17 nM | > 25000 nM | – | – |
| C6-HSDAVFTDNYTOrnLRAibQVAAAibKYLQC(PEG40K)IOrnNOrnGGPSSGAPPPS (HSDAVFTDNYTXLRXQVAAXKYLQCIXNXGGPSSGAPPPS; non-natural residues) [Agonist P373] | 111 nM | 10803 ng·h/mL | 0.167 mL/min/kg | 240 ng/mL | 13 h | 31 h | 73.6% | 33.9 nM | > 25000 nM | 47.1% | – |
| C6-HSDAVFTEQY(OMe)TOrnLRAibQVAK(CO(CH2)2SPEG40K)AibOrnYLQSIOrnOrnGGPSSGAPPPS-NH2 (HSDAVFTEQYTXLRXQVAXXXYLQSIXXGGPSSGAPPPS; non-natural residues) [Agonist P432] | 130 nM | 21471 ng·h/mL | 0.083 mL/min/kg | 392 ng/mL | 16 h | 35 h | 102.1% | 20.1 nM | > 25000 nM | – | – |
| P137: PEGylated material obtained from P120 and methoxy-PEG2-MAL-40K (HSDAVFTDNYTRLRKQVAAKKYLQSIKNKRYGGPSSGAPPPC; also: PEGylated with methoxy-PEG2-MAL-40K, site not given here) [Agonist P137] | 0.64 nM | – | – | – | – | – | – | 8.31 nM | > 25000 nM | – | 52.8% |
